Read-outs that look alike come from different tables or passages of the source.
Experiments:
Experiment in all cases: single-molecule TIRF colocalisation imaging
[1] = target: H3K9me3 chromatin fiber, 12 × 601 array with 177 bp nucleosome repeat length (a177) (human) (UniProt P62805)
[2] = target: H3K9me3 and H4KS16ac chromatin fiber, 12 × 601 array with 177 bp NRL (a177) (human) (UniProt P62805)
[3] = target: H3K9me3 chromatin fiber, 12 × 601 array with 197 bp nucleosome repeat length (a197) (human) (UniProt P62805)
[4] = target: H3K9me3 and H4KS16ac chromatin fiber, 12 × 601 array with 197 bp NRL (a197) (human) (UniProt P62805)
[5] = target: H3K9me3 chromatin fiber, 12 × 601 array with 177 bp nucleosome repeat length (a177) (human) (UniProt P62805); remark: listed apart in the source

Sequence of HP1α, labeled with Atto532 at its C-terminus (P45973 whole entry): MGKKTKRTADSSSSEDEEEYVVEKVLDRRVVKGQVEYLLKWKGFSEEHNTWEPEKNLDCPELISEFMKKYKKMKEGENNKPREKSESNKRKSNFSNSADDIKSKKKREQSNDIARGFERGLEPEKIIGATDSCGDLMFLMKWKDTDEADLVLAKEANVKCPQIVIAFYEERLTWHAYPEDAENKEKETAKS
Sequence of Phosphorylated HP1α (pHP1α), Atto532-labeled, phosphorylated with casein kinase 2 (P45973 whole entry): as above
Sequence of HP1γ, labeled with Atto532 at its C-terminus (Q13185 whole entry): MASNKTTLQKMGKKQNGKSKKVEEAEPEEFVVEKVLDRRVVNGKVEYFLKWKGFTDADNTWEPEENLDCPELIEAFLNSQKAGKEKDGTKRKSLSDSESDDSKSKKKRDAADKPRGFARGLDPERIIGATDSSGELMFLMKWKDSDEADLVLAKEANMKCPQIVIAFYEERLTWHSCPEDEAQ
Sequence of HP1β, labeled with Atto532 at its C-terminus (P83916 whole entry): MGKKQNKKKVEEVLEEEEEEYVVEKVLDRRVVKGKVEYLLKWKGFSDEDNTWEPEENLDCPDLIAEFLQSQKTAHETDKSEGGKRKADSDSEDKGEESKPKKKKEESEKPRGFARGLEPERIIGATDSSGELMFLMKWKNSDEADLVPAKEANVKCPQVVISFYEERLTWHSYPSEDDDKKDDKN

Substance	kon [1]	tau off,1 (residence time, fast phase) [1]	tau off,2 (residence time, slow phase) [1]	kon [2]	tau off,1 (residence time, fast phase) [2]	tau off,2 (residence time, slow phase) [2]	kon [3]	tau off,1 (residence time, fast phase) [3]	tau off,2 (residence time, slow phase) [3]	kon [4]	tau off,1 (residence time, fast phase) [4]	tau off,2 (residence time, slow phase) [4]	kon [5]	tau off,1 (residence time, fast phase) [5]	tau off,2 (residence time, slow phase) [5]
HP1α, labeled with Atto532 at its C-terminus (from UniProt P45973 1-191) (natural protein)	1.1e+06 M⁻¹ s⁻¹	0.19 s	3.32 s	2.76e+06 M⁻¹ s⁻¹	0.19 s	1.92 s	2.51e+06 M⁻¹ s⁻¹	0.24 s	2.49 s	2.25e+06 M⁻¹ s⁻¹	0.16 s	2 s	360000 M⁻¹ s⁻¹	0.14 s	2.97 s
HP1β, labeled with Atto532 at its C-terminus (from UniProt P83916 1-185) (natural protein)	670000 M⁻¹ s⁻¹	0.19 s	3.6 s	–	–	–	–	–	–	–	–	–	–	–	–
HP1γ, labeled with Atto532 at its C-terminus (from UniProt Q13185 1-183) (natural protein)	890000 M⁻¹ s⁻¹	0.17 s	2.64 s	–	–	–	–	–	–	–	–	–	–	–	–
Phosphorylated HP1α (pHP1α), Atto532-labeled, phosphorylated with casein kinase 2 (from UniProt P45973 1-191) (natural protein)	1.73e+06 M⁻¹ s⁻¹	0.26 s	5.6 s	–	–	–	–	–	–	–	–	–	–	–	–

From publication PMC5737501
